Measurements published in PMC12082725.

Target: SARS-CoV-2 nucleocapsid protein (NP), full length (SARS-CoV-2, UniProt P0DTC9 1-419)
Test: BLI

B1: 11-mer 5' TRS-derived RNA (ssRNA)
RNA: UCUAAACGAAC
  Kd: 3.83 ± 0.04 nM
